Measurements: patent US20180104312A1 (Eli Lilly, published 2018)
Read-outs that look alike come from different tables or passages of the source. No end group written: not given here.

What was measured:
[1] = molecular target: T1, human glucose-dependent insulinotropic polypeptide receptor (human) (UniProt P48546); assay: cell-based or functional assay
T1 sequence (looked up): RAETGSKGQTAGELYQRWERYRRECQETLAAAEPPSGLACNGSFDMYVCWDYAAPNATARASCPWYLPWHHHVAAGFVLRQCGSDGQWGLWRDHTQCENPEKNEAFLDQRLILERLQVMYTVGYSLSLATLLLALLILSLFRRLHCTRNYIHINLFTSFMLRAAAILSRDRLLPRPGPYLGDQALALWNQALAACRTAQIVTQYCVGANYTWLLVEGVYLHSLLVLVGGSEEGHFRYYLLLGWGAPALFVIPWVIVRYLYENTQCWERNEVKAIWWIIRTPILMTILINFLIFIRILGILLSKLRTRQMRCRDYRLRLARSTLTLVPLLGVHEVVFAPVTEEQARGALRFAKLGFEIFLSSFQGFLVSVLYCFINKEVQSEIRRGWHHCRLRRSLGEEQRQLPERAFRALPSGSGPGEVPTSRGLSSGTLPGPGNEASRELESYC

[2] = molecular target: T2, human Glucagon-Like Peptide-1 receptor (human, UniProt P43220 24-463); assay: cell-based or functional assay
Target sequence in this assay (P43220 24-463): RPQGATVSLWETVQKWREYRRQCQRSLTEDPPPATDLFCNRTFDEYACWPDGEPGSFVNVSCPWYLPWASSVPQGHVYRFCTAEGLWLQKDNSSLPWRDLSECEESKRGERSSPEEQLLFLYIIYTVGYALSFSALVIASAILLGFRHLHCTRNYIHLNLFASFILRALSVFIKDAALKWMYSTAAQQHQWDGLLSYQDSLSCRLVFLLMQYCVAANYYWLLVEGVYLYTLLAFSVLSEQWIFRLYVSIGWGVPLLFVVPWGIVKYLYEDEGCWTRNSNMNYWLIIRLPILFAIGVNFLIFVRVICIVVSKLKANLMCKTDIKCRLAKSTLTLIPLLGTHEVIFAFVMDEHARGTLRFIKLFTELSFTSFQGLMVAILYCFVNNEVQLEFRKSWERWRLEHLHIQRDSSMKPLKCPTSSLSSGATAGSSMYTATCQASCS

[3] = molecular target: T3, recombinant human glucagon receptor (human, UniProt P47871 26-477); assay: cell-based or functional assay
mouse glucagon receptor = molecular target: T4, mouse glucagon receptor (mouse, UniProt Q61606 27-485); assay: I-125-Gcg competition SPA, membranes of 293HEK cells expressing mGcg-R
T4 construct: whole, on cells; Used as membranes of a clonal 293HEK line; also called mGcg-R; mGcgR
Experimental: (§1) The specific activity is 2200 Ci/mmol. KD determination is performed by homologous competition or saturation binding analysis.
(§2) The receptor binding assay is carried out using a Scintillation Proximity Assay (SPA) format with wheat germ agglutinin (WGA) beads (Perkin Elmer). The binding buffer contains 25 mM 4-(2-hydroxyethyl)-1-piperazineethanesulfonic acid (HEPES), pH 7.4, 2.5 mM CaCl₂, 1 mM MgCl₂, 0.1% (w/v) bacitracin (Affymetrix), 0.003% (w/v) Polyoxyethylenesorbitan monolaurate (TWEEN®-20) and Roche Complete™ Protease Inhibitors without EDTA.

[4] = molecular target: T2, human Glucagon-Like Peptide-1 receptor; assay: cell-based or functional assay; remark: listed apart in the source
[5] = molecular target: T5, human glucose-dependent insulinotropic polypeptide receptor (human, UniProt P48546 22-466); assay: cell-based or functional assay
T5 sequence (looked up): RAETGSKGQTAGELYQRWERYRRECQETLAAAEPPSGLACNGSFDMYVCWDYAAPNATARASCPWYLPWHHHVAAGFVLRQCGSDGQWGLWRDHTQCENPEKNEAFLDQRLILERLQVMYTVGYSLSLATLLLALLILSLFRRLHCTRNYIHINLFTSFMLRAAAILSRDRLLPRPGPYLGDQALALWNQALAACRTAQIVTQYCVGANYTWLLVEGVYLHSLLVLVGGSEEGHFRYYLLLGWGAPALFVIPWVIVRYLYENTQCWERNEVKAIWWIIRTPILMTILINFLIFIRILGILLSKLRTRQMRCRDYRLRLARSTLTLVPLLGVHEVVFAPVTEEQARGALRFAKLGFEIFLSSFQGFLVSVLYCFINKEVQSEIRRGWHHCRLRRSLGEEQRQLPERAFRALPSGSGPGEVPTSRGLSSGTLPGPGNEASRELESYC

[6] = molecular target: T3, recombinant human glucagon receptor; assay: cell-based or functional assay; remark: listed apart in the source
rat glucagon receptor = molecular target: T6, rat glucagon receptor (rat, UniProt P30082 27-485); assay: I-125-Gcg competition SPA, membranes of 293HEK cells expressing rGcg-R
T6 construct: whole, on cells; Used as membranes of transiently transfected 293HEK cells; also called rGcg-R; rat Gcg-R
Experimental: as §1, §2

[7] = molecular target: T3, recombinant human glucagon receptor; assay: I-125-Gcg competition SPA, membranes of 293HEK cells expressing hGcg-R
Experimental: as §1, §2

[8] = molecular target: T2, human Glucagon-Like Peptide-1 receptor; assay: cell-based or functional assay; remark: listed apart in the source
[9] = molecular target: T5, human glucose-dependent insulinotropic …; assay: cell-based or functional assay; remark: listed apart in the source
[10] = molecular target: T3, recombinant human glucagon receptor; assay: cell-based or functional assay; remark: listed apart in the source
[11] = molecular target: T2, human Glucagon-Like Peptide-1 receptor; assay: cell-based or functional assay; remark: listed apart in the source
[12] = molecular target: T5, human glucose-dependent insulinotropic …; assay: cell-based or functional assay; remark: listed apart in the source
[13] = molecular target: T3, recombinant human glucagon receptor; assay: cell-based or functional assay; remark: listed apart in the source

T6 sequence (P30082 27-485): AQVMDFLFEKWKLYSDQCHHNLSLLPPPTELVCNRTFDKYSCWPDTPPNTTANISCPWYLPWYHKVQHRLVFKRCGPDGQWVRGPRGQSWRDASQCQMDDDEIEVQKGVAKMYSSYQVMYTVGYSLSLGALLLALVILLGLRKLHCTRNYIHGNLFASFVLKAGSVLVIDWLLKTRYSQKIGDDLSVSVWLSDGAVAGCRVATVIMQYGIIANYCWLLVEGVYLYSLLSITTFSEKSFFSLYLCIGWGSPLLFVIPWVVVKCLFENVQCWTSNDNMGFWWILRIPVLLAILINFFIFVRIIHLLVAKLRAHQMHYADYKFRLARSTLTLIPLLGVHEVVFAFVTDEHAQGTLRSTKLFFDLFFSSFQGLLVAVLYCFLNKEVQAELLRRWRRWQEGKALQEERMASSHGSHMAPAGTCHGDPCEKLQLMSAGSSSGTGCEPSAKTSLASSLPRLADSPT
T4 sequence (Q61606 27-485): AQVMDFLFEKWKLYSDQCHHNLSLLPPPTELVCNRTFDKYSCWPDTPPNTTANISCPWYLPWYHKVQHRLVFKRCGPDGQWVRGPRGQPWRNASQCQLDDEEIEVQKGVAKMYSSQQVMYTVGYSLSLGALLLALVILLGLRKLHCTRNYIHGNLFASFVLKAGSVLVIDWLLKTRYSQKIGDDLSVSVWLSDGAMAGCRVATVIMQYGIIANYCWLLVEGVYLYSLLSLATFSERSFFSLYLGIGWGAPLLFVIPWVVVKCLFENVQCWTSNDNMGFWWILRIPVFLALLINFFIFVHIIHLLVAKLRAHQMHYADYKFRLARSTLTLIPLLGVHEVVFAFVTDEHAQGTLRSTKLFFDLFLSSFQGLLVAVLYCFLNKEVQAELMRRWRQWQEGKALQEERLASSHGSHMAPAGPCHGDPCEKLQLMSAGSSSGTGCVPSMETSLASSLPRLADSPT
T3 sequence (P47871 26-477): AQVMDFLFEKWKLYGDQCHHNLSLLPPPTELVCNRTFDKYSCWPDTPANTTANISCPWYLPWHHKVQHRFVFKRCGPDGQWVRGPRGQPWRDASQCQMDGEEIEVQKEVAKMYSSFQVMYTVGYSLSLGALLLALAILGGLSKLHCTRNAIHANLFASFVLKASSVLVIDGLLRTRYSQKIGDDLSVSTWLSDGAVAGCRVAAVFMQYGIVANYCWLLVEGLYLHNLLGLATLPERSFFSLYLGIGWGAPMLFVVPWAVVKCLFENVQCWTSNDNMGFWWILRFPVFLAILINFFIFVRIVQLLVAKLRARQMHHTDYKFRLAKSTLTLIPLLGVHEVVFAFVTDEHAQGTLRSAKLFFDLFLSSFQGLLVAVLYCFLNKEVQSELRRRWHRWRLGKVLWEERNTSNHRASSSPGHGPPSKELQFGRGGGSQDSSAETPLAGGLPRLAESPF

dulaglutide (Fc fusion)
EC50, cAMP, GIP Receptor Assay; sample C6.5-4 C.-4 wk [1]: > 100 nM
EC50, cAMP, GIP Receptor Assay; sample C6.5-40 C.-4 wk [1]: > 100 nM
EC50, cAMP, GIP Receptor Assay; sample C6.5MT-4 C.-4 wk [1]: > 100 nM
EC50, cAMP, GIP Receptor Assay; sample C6.5MT-40 C.-4 wk [1]: > 100 nM
EC50, cAMP, GLP-1 Receptor Assay; sample C6.5-4 C.-4 wk [2]: 0.37 nM
EC50, cAMP, GLP-1 Receptor Assay; sample C6.5-40 C.-4 wk [2]: 0.31 nM
EC50, cAMP, GLP-1 Receptor Assay; sample C6.5MT-4 C.-4 wk [2]: 0.4 nM
EC50, cAMP, GLP-1 Receptor Assay; sample C6.5MT-40 C.-4 wk [2]: 0.29 nM
EC50, cAMP, Gcg Receptor Assay; sample C6.5-4 C.-4 wk [3]: 51.9 nM
EC50, cAMP, Gcg Receptor Assay; sample C6.5-40 C.-4 wk [3]: > 100 nM
EC50, cAMP, Gcg Receptor Assay; sample C6.5MT-4 C.-4 wk [3]: 54 nM
EC50, cAMP, Gcg Receptor Assay; sample C6.5MT-40 C.-4 wk [3]: > 100 nM

B1: Example 7 (peptide)
peptide: YXQGTFTSDYSKYLDXKKAXEFVAWLLEE
modifications: Aib at positions 2 and 16; K20 epsilon-amino group conjugated with ([2-(2-Amino-ethoxy)-ethoxy]-acetyl)2-(γGlu)1-CO-(CH2)18-CO2H; C-terminal acid
Ki (mouse glucagon receptor): 0.753 nM
EC50, intracellular cAMP (HTRF) [4]: > 100 nM
EC50, intracellular cAMP (HTRF) [5]: > 500 nM
EC50, intracellular cAMP (HTRF) [6]: 0.0166 nM
Ki (rat glucagon receptor): 1.38 nM
Ki [7]: 0.673 nM

B2: Example 1 (peptide)
peptide: YXQGTFTSDYSKYLDXKKAXEFVEWLLETGPSSGAPPPS
modifications: Aib at positions 2 and 16; K20 epsilon-amino group conjugated with ([2-(2-Amino-ethoxy)-ethoxy]-acetyl)2-(γGlu)2-CO-(CH2)16-CO2H; C-terminal primary amide
Ki (mouse glucagon receptor): 1.92 nM
EC50, intracellular cAMP (HTRF) [4]: 73.9 nM
EC50, intracellular cAMP (HTRF) [5]: > 500 nM
EC50, intracellular cAMP (HTRF) [6]: 0.00436 nM
Ki (rat glucagon receptor): 9.78 nM
EC50, cAMP, GLP-1 Receptor Assay; sample C6.5-4 C.-4 wk [8]: 41.6 nM
EC50, cAMP, GLP-1 Receptor Assay; sample C6.5-40 C.-4 wk [8]: 54.6 nM
EC50, cAMP, GLP-1 Receptor Assay; sample C6.5MT-4 C.-4 wk [8]: 55.6 nM
EC50, cAMP, GLP-1 Receptor Assay; sample C6.5MT-40 C.-4 wk [8]: 47.9 nM
EC50, cAMP, GIP Receptor Assay; sample C6.5-4 C.-4 wk [9]: > 100 nM
EC50, cAMP, GIP Receptor Assay; sample C6.5-40 C.-4 wk [9]: > 100 nM
EC50, cAMP, GIP Receptor Assay; sample C6.5MT-4 C.-4 wk [9]: > 100 nM
EC50, cAMP, GIP Receptor Assay; sample C6.5MT-40 C.-4 wk [9]: > 100 nM
EC50, cAMP, Gcg Receptor Assay; sample C6.5-4 C.-4 wk [10]: 0.0178 nM
EC50, cAMP, Gcg Receptor Assay; sample C6.5-40 C.-4 wk [10]: 0.0243 nM
EC50, cAMP, Gcg Receptor Assay; sample C6.5MT-4 C.-4 wk [10]: 0.0188 nM
EC50, cAMP, Gcg Receptor Assay; sample C6.5MT-40 C.-4 wk [10]: 0.0146 nM
EC50, cAMP, GLP-1 Receptor Assay; sample T7-4 C.-4 wk [11]: > 100 nM
EC50, cAMP, GLP-1 Receptor Assay; sample T7-40 C.-4 wk [11]: 57.5 nM
EC50, cAMP, GLP-1 Receptor Assay; sample T7m-4 C.-4 wk [11]: 43.8 nM
EC50, cAMP, GLP-1 Receptor Assay; sample T7m-40 C.-4 wk [11]: 49.7 nM
EC50, cAMP, GIP Receptor Assay; sample T7-4 C.-4 wk [12]: > 100 nM
EC50, cAMP, GIP Receptor Assay; sample T7-40 C.-4 wk [12]: > 100 nM
EC50, cAMP, GIP Receptor Assay; sample T7m-4 C.-4 wk [12]: > 100 nM
EC50, cAMP, GIP Receptor Assay; sample T7m-40 C.-4 wk [12]: > 100 nM
EC50, cAMP, Gcg Receptor Assay; sample T7-4 C.-4 wk [13]: 0.0203 nM
EC50, cAMP, Gcg Receptor Assay; sample T7-40 C.-4 wk [13]: 0.0217 nM
EC50, cAMP, Gcg Receptor Assay; sample T7m-4 C.-4 wk [13]: 0.023 nM
EC50, cAMP, Gcg Receptor Assay; sample T7m-40 C.-4 wk [13]: 0.0194 nM
Ki [7]: 2.04 nM

B3: Example 2 (peptide)
peptide: YXQGTFTSDYSKYLDXKKAXEFVEWLLETGPSSGAPPPS
modifications: Aib at positions 2 and 16; K20 epsilon-amino group conjugated with ([2-(2-Amino-ethoxy)-ethoxy]-acetyl)2-(γGlu)2-CO-(CH2)18-CO2H; C-terminal primary amide
Ki (mouse glucagon receptor): 0.991 nM
EC50, intracellular cAMP (HTRF) [4]: > 100 nM
EC50, intracellular cAMP (HTRF) [5]: > 500 nM
EC50, intracellular cAMP (HTRF) [6]: 0.0112 nM
Ki (rat glucagon receptor): 5.59 nM
Ki [7]: 1.07 nM

B4: Example 3 (peptide)
peptide: YXQGTFLSDYSKYLDXKKAXEFVEWLLETGPSSGAPPPS
modifications: Aib at positions 2 and 16; K20 epsilon-amino group conjugated with ([2-(2-Amino-ethoxy)-ethoxy]-acetyl)2-(γGlu)2-CO-(CH2)16-CO2H; C-terminal primary amide
Ki (mouse glucagon receptor): 0.174 nM
EC50, intracellular cAMP (HTRF) [4]: > 100 nM
EC50, intracellular cAMP (HTRF) [5]: > 500 nM
EC50, intracellular cAMP (HTRF) [6]: 0.0034 nM
Ki (rat glucagon receptor): 1.56 nM
EC50, cAMP, GLP-1 Receptor Assay; sample C6.5-4 C.-4 wk [8]: > 100 nM
EC50, cAMP, GLP-1 Receptor Assay; sample C6.5-40 C.-4 wk [8]: > 100 nM
EC50, cAMP, GLP-1 Receptor Assay; sample C6.5MT-4 C.-4 wk [8]: > 100 nM
EC50, cAMP, GLP-1 Receptor Assay; sample C6.5MT-40 C.-4 wk [8]: > 100 nM
EC50, cAMP, GIP Receptor Assay; sample C6.5-4 C.-4 wk [9]: > 100 nM
EC50, cAMP, GIP Receptor Assay; sample C6.5-40 C.-4 wk [9]: > 100 nM
EC50, cAMP, GIP Receptor Assay; sample C6.5MT-4 C.-4 wk [9]: > 100 nM
EC50, cAMP, GIP Receptor Assay; sample C6.5MT-40 C.-4 wk [9]: > 100 nM
EC50, cAMP, Gcg Receptor Assay; sample C6.5-4 C.-4 wk [10]: 0.0369 nM
EC50, cAMP, Gcg Receptor Assay; sample C6.5-40 C.-4 wk [10]: 0.0257 nM
EC50, cAMP, Gcg Receptor Assay; sample C6.5MT-4 C.-4 wk [10]: 0.0193 nM
EC50, cAMP, Gcg Receptor Assay; sample C6.5MT-40 C.-4 wk [10]: 0.0214 nM
EC50, cAMP, GLP-1 Receptor Assay; sample T7-4 C.-4 wk [11]: > 100 nM
EC50, cAMP, GLP-1 Receptor Assay; sample T7-40 C.-4 wk [11]: > 100 nM
EC50, cAMP, GLP-1 Receptor Assay; sample T7m-4 C.-4 wk [11]: > 100 nM
EC50, cAMP, GLP-1 Receptor Assay; sample T7m-40 C.-4 wk [11]: > 100 nM
EC50, cAMP, GIP Receptor Assay; sample T7-4 C.-4 wk [12]: > 100 nM
EC50, cAMP, GIP Receptor Assay; sample T7-40 C.-4 wk [12]: > 100 nM
EC50, cAMP, GIP Receptor Assay; sample T7m-4 C.-4 wk [12]: > 100 nM
EC50, cAMP, GIP Receptor Assay; sample T7m-40 C.-4 wk [12]: > 100 nM
EC50, cAMP, Gcg Receptor Assay; sample T7-4 C.-4 wk [13]: 0.0143 nM
EC50, cAMP, Gcg Receptor Assay; sample T7-40 C.-4 wk [13]: 0.0249 nM
EC50, cAMP, Gcg Receptor Assay; sample T7m-4 C.-4 wk [13]: 0.0211 nM
EC50, cAMP, Gcg Receptor Assay; sample T7m-40 C.-4 wk [13]: 0.0211 nM
Ki [7]: 0.287 nM

B5: Example 6 (peptide)
peptide: YXQGTFTSDYSKYLDXKKAXEFVAWLLEE
modifications: Aib at positions 2 and 16; K20 epsilon-amino group conjugated with ([2-(2-Amino-ethoxy)-ethoxy]-acetyl)2-(γGlu)1-CO-(CH2)16-CO2H; C-terminal acid
Ki (mouse glucagon receptor): 0.123 nM
EC50, intracellular cAMP (HTRF) [4]: > 100 nM
EC50, intracellular cAMP (HTRF) [5]: > 500 nM
EC50, intracellular cAMP (HTRF) [6]: 0.00413 nM
Ki (rat glucagon receptor): 0.98 nM
Ki [7]: 0.316 nM

B6: human GIP(1-42)NH2 (peptide)
peptide: YAEGTFISDYSIAMDKIHQQDFVNWLLAQKGKKNDWKHNITQ-NH2
EC50, intracellular cAMP (HTRF) [6]: > 10 nM
